Source: patent US11306156
Each block holds one substance with its values, some of them ahead of it.

Tests used:
[1] = target: tissue factor (TF) antigen (UniProt P13726); assay: SPR (ProteOn), Fab captured on anti-penta-His, TF as analyte, 1:1 fit; estimated value (*) taken from the same Fab with another L chain tag
[2] = target: tissue factor (TF) antigen (UniProt P13726); assay: SPR (ProteOn), Fab captured on anti-penta-His, TF as analyte, 1:1 fit
[3] = target: tissue factor (TF) antigen (UniProt P13726); assay: SPR; Fab captured by anti-His, TF as analyte; LCCA set 9746
[4] = target: tissue factor (TF) antigen (UniProt P13726); assay: SPR; Fab captured by anti-His, TF as analyte; LCCA set 10549
[5] = target: tissue factor (TF) antigen (UniProt P13726); assay: SPR; Fab captured by anti-His, TF as analyte; LCCA set 10549 (identifier in reverse orientation, assigned by Table 12)
[6] = target: tissue factor (TF) antigen (UniProt P13726); assay: SPR; Fab captured by anti-His, TF as analyte; LCCA set 9060
[7] = target: tissue factor (TF) antigen (UniProt P13726); assay: SPR; Fab captured by anti-His, TF as analyte; LCCA set 9822
[8] = target: tissue factor (TF) antigen (UniProt P13726); assay: SPR; Fab captured by anti-His, TF as analyte; LCCA set 9820
[9] = target: tissue factor (TF) antigen (UniProt P13726); assay: SPR; Fab captured by anti-His, TF as analyte; LCCA set 9823
[10] = target: tissue factor (TF) antigen (UniProt P13726); assay: SPR; Fab captured by anti-His, TF as analyte; LCCA set 9824
[11] = target: tissue factor (TF) antigen (UniProt P13726); assay: SPR; Fab captured by anti-His, TF as analyte; LCCA set 9819
[12] = target: tissue factor (TF) antigen (UniProt P13726); assay: SPR; Fab captured by anti-His, TF as analyte; LCCA set 9053
[13] = target: tissue factor (TF) antigen (UniProt P13726); assay: SPR; Fab captured by anti-His, TF as analyte; LCCA set 9054
[14] = target: tissue factor (TF) antigen (UniProt P13726); assay: SPR; Fab captured by anti-His, TF as analyte; LCCA set 9058
[15] = target: D3H44 light chain Q124E_S131T_T178F_T180E (Kabat) with N-terminal HA or FLAG tag; assay: LCCA, SPR read-out of light-chain tags; light-chain DNA 1:3 normalized to 1:1; competing light chain m21
[16] = target: D3H44 light chain Q124R_T178R (Kabat) with N-terminal HA or FLAG tag; assay: LCCA, SPR read-out of light-chain tags; light-chain DNA 1:3 normalized to 1:1; competing light chain m22

Change in KD with respect to wild type (-(log(KD design) - log(KD wt))) [1]: -0.12
Kd [1]: 0.21 nM
Change in KD with respect to wild type (-(log(KD design) - log(KD wt))) [2]: -0.12
Kd [2]: 0.21 nM
Substance: D3H44 Fab heterodimer, H L143E_K145T_S188L / L Q124R

Change in KD with respect to wild type (-(log(KD design) - log(KD wt))) [3]: -0.35
Kd [3]: 0.35 nM
Change in KD with respect to wild type (-(log(KD design) - log(KD wt))) [4]: -0.35
Kd [4]: 0.35 nM
Change in KD with respect to wild type (-(log(KD design) - log(KD wt))) [5]: -0.35
Kd [5]: 0.35 nM
Substance: D3H44 Fab heterodimer, H L45P_K145T_Q179E / L P44F_S131K (H1L1 Fab of LCCA sets 9746, 10549)

Change in KD with respect to wild type (-(log(KD design) - log(KD wt))) [6]: 0.04
Kd [6]: 0.14 nM
Substance: D3H44 Fab heterodimer, H A139W_L143E_K145T_Q179E / L F116A_Q124R_L135V_T178R (H1L1 Fab of LCCA set 9060)

Change in KD with respect to wild type (-(log(KD design) - log(KD wt))) [7]: 0.17
Kd [7]: 0.11 nM
Substance: D3H44 Fab heterodimer, H Q39R_D146G_Q179K / L Q38E_Q124E_Q160E_T180E (H1L1 Fab of LCCA set 9822)

Change in KD with respect to wild type (-(log(KD design) - log(KD wt))) [8]: -0.1
Kd [8]: 0.2 nM
Substance: D3H44 Fab heterodimer, H Q39E_L143E_K145T_Q179E / L Q38R_Q124R_Q160K_T178R (H1L1 Fab of LCCA set 9820)

Change in KD with respect to wild type (-(log(KD design) - log(KD wt))) [9]: -0.18
Kd [9]: 0.24 nM
Substance: D3H44 Fab heterodimer, H Q39R_H172R_Q179K / L Q38E_Q124E_Q160E_T180E (H1L1 Fab of LCCA set 9823)

Change in KD with respect to wild type (-(log(KD design) - log(KD wt))) [10]: 0.03
Kd [10]: 0.15 nM
Substance: D3H44 Fab heterodimer, H Q39R_H172R_S186R / L Q38E_Q124E_Q160E_T180E (H1L1 Fab of LCCA set 9824)

Change in KD with respect to wild type (-(log(KD design) - log(KD wt))) [11]: 0.03
Kd [11]: 0.15 nM
Substance: D3H44 Fab heterodimer, H Q39E_L143E_K145T_H172R_Q179E / L Q38R_Q124R_Q160K_T178R (H1L1 Fab of LCCA set 9819)

Change in KD with respect to wild type (-(log(KD design) - log(KD wt))) [12]: 0.05
Kd [12]: 0.14 nM
Change in KD with respect to wild type (-(log(KD design) - log(KD wt))) [13]: 0.05
Kd [13]: 0.14 nM
Substance: D3H44 Fab heterodimer, H A139G_Q179K_V190A / L Q124E_L135W_Q160E_T180E (H1L1 Fab of LCCA sets 9053, 9054)

Change in KD with respect to wild type (-(log(KD design) - log(KD wt))) [14]: 0.12
Kd [14]: 0.12 nM
Substance: D3H44 Fab heterodimer, H A139W_L143E_K145T_Q179E / L F116A_Q124R_L135V (H1L1 Fab of LCCA set 9058)

H1L1:H1L2 normalized median ratio [15]: 23%
H1L1:H1L2 normalized median ratio [16]: 77%
H1L1:H1L2 normalized median scalar value ln(r1/f1) [16]: 1.19
Substance: D3H44 Fab heavy chain L143E_K145T_Q179E_S188L (Kabat) with C-terminal ABD2-His6 tag
